# In patent US20210332112A1 (University of Texas, published 2021):
# Target: pertussis toxin (Bordetella pertussis, UniProt P04977 35-269; P04978 28-226; P04979 29-227; P0A3R5 43-152; P04981 35-133)
# Experiment: ELISA, plate coated with pertussis toxin, antibody titrated, detection with goat anti-human kappa constant domain-HRP [panel C]
binder,measurement,value
"hu1B7 antibody (antibody, V domains shown) VH: EVQLVESGGGLVQPGGSLRLSCAASGYKFTSYWMHWVRQAPGKGLEWVGNIFPGSGSTNYDEKFNSRFTISVDTSKNTAYLQMNSLRAEDTAVYYCTRWLSGAYFDYWGQGTLVTVSS VL: DIQMTQSPSSLSASVGDRVTITCSASSSVSFMYWYQQKPGKAPKLLIYLTSNLPSGVPSRFSGFGSGTDYTLTISSLQPEDFATYYCQQWSSHPPTFGQGTKVEIK",EC50 (read off the curve),~0.05 µg/mL
